Residue numbers refer to the chain shown, from its start.

This test has as its target T1, M. tuberculosis Rv0020c (M. tuberculosis H37Rv, UniProt P71590 1-527).
T1 sequence: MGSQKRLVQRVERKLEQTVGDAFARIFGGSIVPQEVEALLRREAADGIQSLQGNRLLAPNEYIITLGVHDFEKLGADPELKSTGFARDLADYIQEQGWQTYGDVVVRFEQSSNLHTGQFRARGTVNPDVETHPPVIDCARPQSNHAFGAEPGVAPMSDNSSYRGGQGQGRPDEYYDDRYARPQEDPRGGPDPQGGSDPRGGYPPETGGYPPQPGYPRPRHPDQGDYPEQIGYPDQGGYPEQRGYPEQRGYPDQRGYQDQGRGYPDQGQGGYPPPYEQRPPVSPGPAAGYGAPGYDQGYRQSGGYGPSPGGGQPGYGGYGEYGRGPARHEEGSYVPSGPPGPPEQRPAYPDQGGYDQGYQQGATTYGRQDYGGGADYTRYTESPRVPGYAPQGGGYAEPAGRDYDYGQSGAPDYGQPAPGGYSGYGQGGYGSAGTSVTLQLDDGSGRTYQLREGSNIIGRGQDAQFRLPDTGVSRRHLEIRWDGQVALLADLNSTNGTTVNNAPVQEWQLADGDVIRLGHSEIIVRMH
The test is described as follows: ELISA. The note with it: both partners purified.

B1: MBP-tagged MupDivIVA-P (Mup012c residues 1-87, phosphorylated by co-expression with PknQ) (natural protein, M. ulcerans Agy99 (plasmid pMUM001), UniProt Q6MZ92 1-87, looked up)
chain: MSHSELLDPALPKSPFGKQGYRYDDVDVFLRLIADELQGSDLSESDIHSITFRCAAPLTRGYDTESVDRFLDRIAETIARGHGDEGQ
notes: also called phosphorylated MupDivIVA
B1: the binding result is reported as “binds”.

B2: MBP-tagged MupDivIVA S43/45/49A triple mutant (natural protein)
chain: B1 chain with S43A, S45A, S49A
In the case of B2, the binding result is “binds”.

The record behind these values is PMC4238996 (PLoS Neglected Tropical Diseases, 2014).
